Results from the supplement of paper PMC10065799, “High-throughput profiling of sequence recognition by tyrosine kinases and SH2 domains using bacterial peptide display” (eLife, 2023).

How the values were obtained:
c-Src = experiment: phosphorylation enrichment, bacterial display (enrichment ratio); higher = better substrate or ligand; peptides without Tyr show the background
Fyn = Fyn (UniProt P06241); experiment: as above
EPHB2 = EPHB2 (UniProt P29323); experiment: as above
Hck = Hck (UniProt P08631); experiment: as above
Fes = Fes (UniProt P07332); experiment: as above
FGFR1 = FGFR1 (UniProt P11362); experiment: as above
MERTK = MERTK (UniProt Q12866); experiment: as above
Jak2 = Jak2 (UniProt O60674); experiment: as above
EPHB1 = EPHB1 (UniProt P54762); experiment: as above
Fer (mouse) = experiment: as above
c-Abl (mouse) = experiment: as above
AncSZ = experiment: as above
FGFR3 = FGFR3 (UniProt P22607); experiment: as above
c-Src SH2 = experiment: SH2 binding enrichment of the phosphorylated peptide, bacterial display (enrichment ratio); higher = better substrate or ligand; peptides without Tyr show the background
SHP2-C SH2 = experiment: as above
Grb2 SH2 = Grb2 SH2 (UniProt P62993); experiment: as above
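Throughout, for SH2 binding enrichment of the phosphorylated peptide, bacterial display: peptide library displayed on the E. coli surface as eCPX fusions, selected cells deep-sequenced, score is each peptide's frequency after selection divided by its frequency in the input.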
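Throughout, for phosphorylation enrichment, bacterial display: 11-residue human phosphosite peptides and single-mutation variants displayed on the E. coli surface, counted by deep sequencing, each peptide's frequency after selection divided by its frequency in the unselected input library; frequency after pTyr selection over input frequency; kinase dosed for 20-30% of maximal phosphorylation in three min.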

Sequence of Fyn (P06241 whole entry, looked up): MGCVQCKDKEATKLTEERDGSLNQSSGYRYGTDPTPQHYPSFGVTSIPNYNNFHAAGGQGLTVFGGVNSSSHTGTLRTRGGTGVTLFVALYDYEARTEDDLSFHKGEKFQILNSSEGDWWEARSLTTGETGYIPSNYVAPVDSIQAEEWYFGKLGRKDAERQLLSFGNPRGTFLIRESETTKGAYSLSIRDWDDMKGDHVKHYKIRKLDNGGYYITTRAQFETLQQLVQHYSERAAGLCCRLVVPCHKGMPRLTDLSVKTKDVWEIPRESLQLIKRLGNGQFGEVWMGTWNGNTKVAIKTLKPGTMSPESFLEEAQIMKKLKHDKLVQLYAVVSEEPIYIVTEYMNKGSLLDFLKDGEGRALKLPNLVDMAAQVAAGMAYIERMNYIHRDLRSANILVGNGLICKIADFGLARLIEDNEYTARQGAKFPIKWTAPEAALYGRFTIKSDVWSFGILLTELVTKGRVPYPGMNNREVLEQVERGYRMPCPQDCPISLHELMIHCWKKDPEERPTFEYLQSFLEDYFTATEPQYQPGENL
Sequence of Jak2 (O60674 whole entry, looked up): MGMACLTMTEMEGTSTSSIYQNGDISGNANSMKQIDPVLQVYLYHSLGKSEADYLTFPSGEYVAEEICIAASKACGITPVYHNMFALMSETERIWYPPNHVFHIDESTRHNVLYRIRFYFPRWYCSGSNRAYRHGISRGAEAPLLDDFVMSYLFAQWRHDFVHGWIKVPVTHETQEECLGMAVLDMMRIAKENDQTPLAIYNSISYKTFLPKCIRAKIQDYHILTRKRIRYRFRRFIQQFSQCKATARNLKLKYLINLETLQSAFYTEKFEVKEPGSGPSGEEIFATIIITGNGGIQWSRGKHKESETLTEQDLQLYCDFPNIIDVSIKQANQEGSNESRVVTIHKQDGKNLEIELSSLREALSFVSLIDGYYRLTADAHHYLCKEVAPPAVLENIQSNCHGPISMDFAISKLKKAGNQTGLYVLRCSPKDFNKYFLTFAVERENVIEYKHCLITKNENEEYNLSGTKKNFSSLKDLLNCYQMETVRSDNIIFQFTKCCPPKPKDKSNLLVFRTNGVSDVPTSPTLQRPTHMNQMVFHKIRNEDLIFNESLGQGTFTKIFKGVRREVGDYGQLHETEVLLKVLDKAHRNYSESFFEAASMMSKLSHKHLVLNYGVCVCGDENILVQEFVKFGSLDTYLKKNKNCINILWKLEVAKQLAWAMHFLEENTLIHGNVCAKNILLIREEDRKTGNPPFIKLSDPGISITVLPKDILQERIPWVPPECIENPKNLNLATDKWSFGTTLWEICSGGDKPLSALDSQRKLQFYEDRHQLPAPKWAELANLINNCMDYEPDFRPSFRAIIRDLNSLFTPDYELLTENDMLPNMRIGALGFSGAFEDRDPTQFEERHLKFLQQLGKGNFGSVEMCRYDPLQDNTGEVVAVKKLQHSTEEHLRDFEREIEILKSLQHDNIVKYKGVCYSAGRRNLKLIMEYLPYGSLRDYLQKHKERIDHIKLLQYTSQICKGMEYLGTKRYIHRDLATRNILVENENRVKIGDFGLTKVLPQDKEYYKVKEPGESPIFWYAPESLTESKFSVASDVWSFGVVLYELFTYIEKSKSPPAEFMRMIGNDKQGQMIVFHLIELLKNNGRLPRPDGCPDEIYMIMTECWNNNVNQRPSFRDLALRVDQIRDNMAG
Sequence of FGFR1 (P11362 whole entry, looked up): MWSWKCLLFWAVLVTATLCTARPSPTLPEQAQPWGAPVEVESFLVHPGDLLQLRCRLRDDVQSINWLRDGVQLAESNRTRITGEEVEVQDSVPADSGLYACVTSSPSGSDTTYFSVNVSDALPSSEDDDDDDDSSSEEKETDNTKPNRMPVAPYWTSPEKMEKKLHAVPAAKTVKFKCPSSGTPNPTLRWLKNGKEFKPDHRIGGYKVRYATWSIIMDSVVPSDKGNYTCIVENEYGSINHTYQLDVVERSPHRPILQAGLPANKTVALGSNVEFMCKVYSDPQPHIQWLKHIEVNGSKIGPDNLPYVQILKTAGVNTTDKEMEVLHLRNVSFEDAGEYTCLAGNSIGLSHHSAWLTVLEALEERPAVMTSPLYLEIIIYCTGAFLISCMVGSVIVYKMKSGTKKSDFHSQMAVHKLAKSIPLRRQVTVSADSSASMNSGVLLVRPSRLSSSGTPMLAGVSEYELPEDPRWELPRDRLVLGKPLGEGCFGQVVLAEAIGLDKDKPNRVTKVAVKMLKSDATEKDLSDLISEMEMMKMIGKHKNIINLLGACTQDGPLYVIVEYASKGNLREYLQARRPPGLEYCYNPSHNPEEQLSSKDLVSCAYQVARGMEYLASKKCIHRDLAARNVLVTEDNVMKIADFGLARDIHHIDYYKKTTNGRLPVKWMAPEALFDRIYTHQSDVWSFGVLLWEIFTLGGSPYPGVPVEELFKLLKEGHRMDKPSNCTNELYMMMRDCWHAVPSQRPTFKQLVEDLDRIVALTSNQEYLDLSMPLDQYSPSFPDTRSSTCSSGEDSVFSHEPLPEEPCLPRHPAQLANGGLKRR
Sequence of FGFR3 (P22607 whole entry, looked up): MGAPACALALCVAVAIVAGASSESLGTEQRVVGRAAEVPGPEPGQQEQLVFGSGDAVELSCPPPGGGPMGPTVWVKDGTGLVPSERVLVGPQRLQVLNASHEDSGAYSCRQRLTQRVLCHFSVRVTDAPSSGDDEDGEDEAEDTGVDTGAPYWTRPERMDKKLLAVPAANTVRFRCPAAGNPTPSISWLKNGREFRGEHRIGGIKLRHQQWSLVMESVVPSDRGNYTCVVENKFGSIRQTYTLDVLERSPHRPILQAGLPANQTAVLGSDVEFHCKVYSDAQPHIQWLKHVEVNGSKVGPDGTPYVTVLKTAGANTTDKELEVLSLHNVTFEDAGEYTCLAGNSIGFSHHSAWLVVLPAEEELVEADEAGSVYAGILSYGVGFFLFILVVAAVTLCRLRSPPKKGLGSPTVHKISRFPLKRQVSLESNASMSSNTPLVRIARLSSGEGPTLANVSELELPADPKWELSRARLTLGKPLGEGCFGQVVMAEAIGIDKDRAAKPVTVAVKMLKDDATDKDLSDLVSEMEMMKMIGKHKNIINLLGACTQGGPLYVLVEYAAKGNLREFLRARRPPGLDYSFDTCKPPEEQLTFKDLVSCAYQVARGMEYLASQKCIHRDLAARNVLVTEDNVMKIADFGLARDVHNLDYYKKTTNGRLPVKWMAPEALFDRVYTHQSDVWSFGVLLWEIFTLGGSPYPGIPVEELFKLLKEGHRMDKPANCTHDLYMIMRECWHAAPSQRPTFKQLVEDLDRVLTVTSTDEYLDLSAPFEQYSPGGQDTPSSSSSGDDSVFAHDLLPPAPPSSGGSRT
Sequence of Hck (P08631 whole entry, looked up): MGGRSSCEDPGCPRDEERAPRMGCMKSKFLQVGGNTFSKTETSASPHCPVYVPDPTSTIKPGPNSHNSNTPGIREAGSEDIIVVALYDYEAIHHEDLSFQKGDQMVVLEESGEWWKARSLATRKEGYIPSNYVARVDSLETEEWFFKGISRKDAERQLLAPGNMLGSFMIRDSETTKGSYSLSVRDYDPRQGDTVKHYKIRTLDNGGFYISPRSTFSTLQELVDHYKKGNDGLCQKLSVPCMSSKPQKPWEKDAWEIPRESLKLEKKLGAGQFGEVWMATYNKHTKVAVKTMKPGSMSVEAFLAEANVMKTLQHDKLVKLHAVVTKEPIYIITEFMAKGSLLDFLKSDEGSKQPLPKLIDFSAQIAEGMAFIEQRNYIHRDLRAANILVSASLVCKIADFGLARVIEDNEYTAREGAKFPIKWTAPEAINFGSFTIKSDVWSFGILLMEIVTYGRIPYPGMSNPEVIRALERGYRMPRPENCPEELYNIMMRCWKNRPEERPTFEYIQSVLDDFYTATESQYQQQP
Sequence of MERTK (Q12866 whole entry, looked up): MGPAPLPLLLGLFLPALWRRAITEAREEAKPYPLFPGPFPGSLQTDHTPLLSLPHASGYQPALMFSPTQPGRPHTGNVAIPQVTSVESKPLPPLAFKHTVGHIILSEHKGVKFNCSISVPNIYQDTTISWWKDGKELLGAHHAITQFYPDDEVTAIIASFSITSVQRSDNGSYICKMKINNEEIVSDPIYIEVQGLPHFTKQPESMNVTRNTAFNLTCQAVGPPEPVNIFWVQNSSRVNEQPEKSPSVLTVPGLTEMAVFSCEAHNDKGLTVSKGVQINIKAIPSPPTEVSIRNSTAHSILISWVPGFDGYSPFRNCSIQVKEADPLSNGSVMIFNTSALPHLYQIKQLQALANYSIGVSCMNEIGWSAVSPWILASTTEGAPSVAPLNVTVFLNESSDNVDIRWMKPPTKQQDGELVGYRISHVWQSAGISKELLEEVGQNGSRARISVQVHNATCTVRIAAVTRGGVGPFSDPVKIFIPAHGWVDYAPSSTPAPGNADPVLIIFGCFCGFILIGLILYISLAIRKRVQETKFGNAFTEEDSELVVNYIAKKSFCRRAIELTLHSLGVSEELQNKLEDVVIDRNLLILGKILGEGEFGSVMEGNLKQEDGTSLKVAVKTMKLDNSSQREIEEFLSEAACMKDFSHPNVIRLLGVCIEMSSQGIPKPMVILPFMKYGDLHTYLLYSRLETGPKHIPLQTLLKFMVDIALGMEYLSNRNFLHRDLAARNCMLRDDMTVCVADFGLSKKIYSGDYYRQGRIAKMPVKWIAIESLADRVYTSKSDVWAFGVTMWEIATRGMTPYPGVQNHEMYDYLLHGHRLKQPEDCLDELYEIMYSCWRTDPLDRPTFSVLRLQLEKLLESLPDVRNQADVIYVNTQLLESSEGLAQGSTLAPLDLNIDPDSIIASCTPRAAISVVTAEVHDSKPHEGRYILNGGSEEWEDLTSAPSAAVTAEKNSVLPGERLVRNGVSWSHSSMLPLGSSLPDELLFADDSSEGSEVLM

| Sequence | SH2 binding enrichment (c-Src SH2) | SH2 binding enrichment (SHP2-C SH2) | SH2 binding enrichment (Grb2 SH2) | phosphorylation enrichment (c-Src) | phosphorylation enrichment (Fyn) | phosphorylation enrichment (EPHB2) | phosphorylation enrichment (Hck) | phosphorylation enrichment (Fes) | phosphorylation enrichment (FGFR1) | phosphorylation enrichment (MERTK) | phosphorylation enrichment (Jak2) | phosphorylation enrichment (EPHB1) | phosphorylation enrichment (Fer (mouse)) | phosphorylation enrichment (c-Abl (mouse)) | phosphorylation enrichment (AncSZ) | phosphorylation enrichment (FGFR3) |
| --- | --- | --- | --- | --- | --- | --- | --- | --- | --- | --- | --- | --- | --- | --- | --- | --- |
| SHSMRYFFTAV [HLA-C_Y31_D33F] | 1.25 | 1.33 | 1.39 | 0.568 | 0.53 | 0.626 | 0.525 | 1.3 | 0.62 | 0.525 | 1.13 | 0.595 | 0.619 | 0.923 | 1.13 | 0.874 |
| WDLSEYSFKDP [ITGA3_Y237_YF] | 0.661 | 1.29 | 0.916 | 2.11 | 2.17 | 0.618 | 0.985 | 1.23 | 0.625 | 0.445 | 1.21 | 0.682 | 0.556 | 0.853 | 2.14 | 0.885 |
| KLKEKYQKDIA [HMGB1_Y155_E156Q] | 1.11 | 1.91 | 1.24 | 0.582 | 0.465 | 0.588 | 0.487 | 0.996 | 0.565 | 0.557 | 1.47 | 0.454 | 0.522 | 1.24 | 0.57 | 1.21 |
| ERWLKYFPNEQ [HS3ST5_Y244_I247N] | 0.707 | 1.24 | 0.95 | 0.419 | 0.62 | 0.584 | 0.482 | 1.12 | 0.438 | 0.38 | 0.927 | 0.664 | 0.459 | 0.518 | 1.09 | 0.632 |
| KLKNAYEESLE [MYH7_Y1488] | 0.654 | 0.761 | 0.531 | 0.472 | 0.429 | 0.445 | 0.384 | 1.14 | 0.65 | 0.452 | 0.908 | 0.491 | 0.454 | 0.743 | 0.982 | 0.612 |
| PSQRRYVYYYS [PTEN_Y174] | 2.25 | 4.7 | 1.55 | 0.872 | 0.648 | 0.459 | 0.497 | 1.08 | 2.08 | 2.42 | 1.13 | 0.57 | 0.503 | 1.21 | 0.958 | 0.785 |
| EFQLPYFNMVP [BMPR1A_Y457_YF] | 0.751 | 0.95 | 2.82 | 2.12 | 0.547 | 0.46 | 0.596 | 1.01 | 5 | 0.584 | 7.21 | 0.389 | 0.348 | 0.618 | 1.01 | 3.58 |
| FIRKDYEACKA [BBS4_Y48_YF] | 0.792 | 0.731 | 1.07 | 0.479 | 0.445 | 0.516 | 0.396 | 0.865 | 0.502 | 0.334 | 0.741 | 0.651 | 0.49 | 0.726 | 0.642 | 0.592 |
| FTYDPYSEEEP [IL2RB_Y387_D391E] | 0.817 | 0.699 | 0.92 | 1.69 | 1.14 | 0.572 | 0.825 | 1.25 | 0.5 | 0.524 | 1.27 | 0.652 | 0.601 | 0.915 | 1.22 | 0.818 |
| TKEPKYEGAGS [KIAA1210_Y1615] | 0.597 | 0.719 | 0.863 | 0.315 | 0.339 | 0.337 | 0.372 | 0.542 | 0.403 | 0.326 | 0.5 | 0.368 | 0.378 | 0.496 | 0.614 | 0.385 |
| IMITDYLPLFR [INSR_Y87_L89P] | 0.659 | 0.857 | 1.21 | 0.577 | 0.473 | 0.651 | 0.755 | 0.985 | 0.737 | 0.427 | 2.85 | 0.641 | 0.376 | 0.732 | 1.09 | 0.729 |
| PFAEPYADFGG [APBA1_Y187_S184A_YF] | 0.676 | 0.682 | 0.742 | 2.43 | 0.72 | 0.593 | 0.673 | 1.2 | 0.68 | 0.571 | 0.993 | 0.695 | 0.38 | 0.638 | 1.13 | 0.802 |
| EVGHVYLFLQP [ITGA2B_Y360_R358H] | 0.425 | 0.669 | 0.755 | 0.434 | 0.472 | 0.679 | 0.5 | 1.42 | 0.512 | 0.393 | 1.42 | 0.735 | 0.618 | 0.885 | 1.33 | 0.893 |
| ILTFKYLQKPM [KIT_Y547_YF] | 0.449 | 0.474 | 0.659 | 0.605 | 0.579 | 0.759 | 0.543 | 1.29 | 0.485 | 0.548 | 1.42 | 0.792 | 0.562 | 1.07 | 1.19 | 0.742 |
| QQPGPYDRPGA [HNRNPH2_Y210_R206Q] | 0.857 | 0.689 | 0.905 | 0.577 | 0.565 | 0.493 | 0.662 | 1.39 | 0.66 | 0.599 | 0.643 | 0.528 | 0.551 | 0.567 | 0.683 | 0.619 |
| LANNEYFFRVC | 0.634 | 0.884 | 1.05 | 0.55 | 0.74 | 0.917 | 0.53 | 1.19 | 1.31 | 0.517 | 1.38 | 0.733 | 0.505 | 0.698 | 1.23 | 1.47 |
| TESNNYIYKTL [FAM83B_Y637] | 0.523 | 1.65 | 0.738 | 1.28 | 1.31 | 0.44 | 0.99 | 0.696 | 0.625 | 0.535 | 0.63 | 0.483 | 0.512 | 0.559 | 0.729 | 0.64 |
| SFTDPYAQPSL [KMT2D_Y2378_P2382S_YF] | 2.12 | 0.759 | 0.777 | 0.447 | 0.481 | 0.526 | 0.581 | 0.806 | 0.508 | 0.429 | 0.689 | 0.47 | 0.447 | 0.747 | 0.743 | 0.67 |
| KNNDGYTDYAE [MCFD2_Y135_I136T] | 1.79 | 0.588 | 0.766 | 0.383 | 0.463 | 0.57 | 0.461 | 1 | 0.515 | 0.458 | 0.831 | 0.475 | 0.381 | 0.85 | 0.941 | 0.597 |
| NHFKIYNLFAE [PTEN_Y68_C71Y_YF] |  |  |  | 1.64 | 2.73 | 1.14 | 1.53 | 1.33 | 0.933 | 0.329 | 0.612 | 0.931 | 0.946 | 0.573 | 1.14 | 1.36 |

Continued, in another order:

| SH2 binding enrichment (c-Src SH2) | SH2 binding enrichment (SHP2-C SH2) | SH2 binding enrichment (Grb2 SH2) | Sequence | phosphorylation enrichment (c-Src) | phosphorylation enrichment (Fyn) | phosphorylation enrichment (EPHB2) | phosphorylation enrichment (Hck) | phosphorylation enrichment (Fes) | phosphorylation enrichment (FGFR1) | phosphorylation enrichment (MERTK) | phosphorylation enrichment (Jak2) | phosphorylation enrichment (EPHB1) | phosphorylation enrichment (Fer (mouse)) | phosphorylation enrichment (c-Abl (mouse)) | phosphorylation enrichment (AncSZ) | phosphorylation enrichment (FGFR3) |
| --- | --- | --- | --- | --- | --- | --- | --- | --- | --- | --- | --- | --- | --- | --- | --- | --- |
| 1.07 | 1.04 | 1.22 | PFRQWYESHFA [RPS8_Y113_YF] | 0.972 | 0.586 | 0.786 | 0.68 | 1.11 | 0.731 | 0.906 | 0.963 | 0.827 | 3.73 | 0.764 | 1.08 | 0.524 |
| 0.398 | 0.448 | 0.904 | ASKEPYFVRCI [MYO1D_Y585_YF] | 0.611 | 0.622 | 0.734 | 0.659 | 1.77 | 0.449 | 0.574 | 1.22 | 0.762 | 0.569 | 0.938 | 1.38 | 0.93 |
| 0.601 | 0.767 | 0.808 | MPQNEYIELHR [NSA2_Y6] | 0.66 | 0.444 | 0.673 | 0.743 | 0.767 | 1.95 | 0.338 | 0.7 | 0.696 | 0.325 | 0.497 | 0.9 | 1.03 |
| 0.923 | 0.998 | 0.85 | RQNNSYTCFTA [SLC20A2_Y386_R382Q_YF] | 0.712 | 0.537 | 0.658 | 0.544 | 0.898 | 0.663 | 0.938 | 0.951 | 0.819 | 0.751 | 0.802 | 1.04 | 0.904 |
| 0.436 | 0.774 | 0.755 | NREGVYRVFAP [TGFBI_Y537_T538R] | 4.67 | 4.68 | 0.376 | 1.79 | 0.556 | 0.409 | 0.533 | 0.484 | 0.364 | 0.397 | 0.636 | 0.603 | 0.495 |
| 0.496 | 0.539 | 0.725 | AKKMKYFEGVS [PRKDC_Y682_I680M] | 0.394 | 0.419 | 0.3 | 0.351 | 0.559 | 0.395 | 0.318 | 0.499 | 0.393 | 0.311 | 0.404 | 0.493 | 0.434 |
| 1.17 | 0.978 | 1.57 | GRKTLYSFFSP [UNG_Y8_Q4R] | 1.9 | 1.13 | 0.603 | 2.26 | 0.825 | 0.571 | 12 | 0.91 | 0.709 | 3.82 | 0.56 | 0.529 | 0.641 |
| 0.62 | 0.675 | 0.863 | VCDALYPPGPP | 0.443 | 0.306 | 0.329 | 0.288 | 0.794 | 0.421 | 0.282 | 0.73 | 0.465 | 0.489 | 0.766 | 0.779 | 0.467 |
| 0.453 | 0.553 | 1.15 | YRRITYHNWRH [PDE6B_Y556] | 0.606 | 0.525 | 0.362 | 0.477 | 0.637 | 0.386 | 0.562 | 0.585 | 0.376 | 0.452 | 0.53 | 0.642 | 0.425 |
